For data set [1], the target named is T1, KAR (Homo sapiens, UniProt Q53GQ0).
T1 construct: gene HSD17B12; N-terminal 3xFLAG, kept; HEK 293T expressed; anti-FLAG purified, co-reconstituted with ELOVL6 in POPC proteoliposomes; 36 kDa and faint N-glycosylated 39 kDa
T1 sequence (Q53GQ0 1-312): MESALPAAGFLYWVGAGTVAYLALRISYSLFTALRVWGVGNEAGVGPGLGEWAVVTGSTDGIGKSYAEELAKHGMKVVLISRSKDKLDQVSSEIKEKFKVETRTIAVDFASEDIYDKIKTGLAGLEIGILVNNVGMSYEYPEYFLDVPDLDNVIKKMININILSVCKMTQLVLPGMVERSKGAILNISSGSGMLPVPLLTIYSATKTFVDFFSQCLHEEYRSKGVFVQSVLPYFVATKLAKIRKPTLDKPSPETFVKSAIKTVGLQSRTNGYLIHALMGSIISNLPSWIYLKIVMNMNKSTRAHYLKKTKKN
T1 sequence (Q9H5J4 1-265 partner): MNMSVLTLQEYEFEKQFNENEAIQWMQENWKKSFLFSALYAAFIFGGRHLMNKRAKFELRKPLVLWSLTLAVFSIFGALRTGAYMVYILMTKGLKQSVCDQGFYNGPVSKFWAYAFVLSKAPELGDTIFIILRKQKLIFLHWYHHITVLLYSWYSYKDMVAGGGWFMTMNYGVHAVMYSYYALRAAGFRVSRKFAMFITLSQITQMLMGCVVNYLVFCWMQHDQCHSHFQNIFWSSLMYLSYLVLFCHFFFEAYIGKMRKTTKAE
The data set is described as follows: coupled elongation with ELOVL6, […]malonyl-CoA, TLC. It is filed as biochemical. Conditions: 1 mM NADPH; co-reconstituted ELOVL6; 8 µM C16:0-CoA; 27.3 µM [14C]malonyl-CoA; pH 6.8; 37 °C; 90 min.

The target of data set [2] is T2, 3xFLAG-ELOVL6 (fatty acid elongase ELOVL6) (human) (UniProt Q9H5J4).
T2 sequence: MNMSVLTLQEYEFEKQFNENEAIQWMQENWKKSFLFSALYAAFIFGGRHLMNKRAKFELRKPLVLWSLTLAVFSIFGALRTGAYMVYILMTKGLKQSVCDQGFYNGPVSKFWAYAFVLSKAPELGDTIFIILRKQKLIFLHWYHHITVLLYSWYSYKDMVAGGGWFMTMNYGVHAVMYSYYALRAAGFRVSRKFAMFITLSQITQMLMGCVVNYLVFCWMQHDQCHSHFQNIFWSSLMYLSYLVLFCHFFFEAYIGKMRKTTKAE

Data set [3] addresses T2, 3xFLAG-ELOVL6 (fatty acid elongase ELOVL6) (human). This is another data set of the same source.
Substrate in data set [4]: CC(C)(COP(=O)(O)OP(=O)(O)OC[C@H]1O[C@@H](n2cnc3c(N)ncnc32)[C@H](O)[C@@H]1OP(=O)(O)O)[C@@H](O)C(=O)NCCC(=O)NCCSC(=O)CC(=O)O
The data set is described as follows: purified protein. The class given is biochemical, Homo sapiens. Conditions: 8 µM C16:0-CoA, proteoliposomes, pH 6.8, 37 °C, 90 min, ELOVL6 alone, labelled compound.

Substrate in data set [5]: CCCCCCCCCCCCCCCC(=O)SCCNC(=O)CCNC(=O)[C@H](O)C(C)(C)COP(=O)(O)OP(=O)(O)OC[C@H]1O[C@@H](n2cnc3c(N)ncnc32)[C@H](O)[C@@H]1OP(=O)(O)O
In words: purified protein. It is filed as biochemical, Homo sapiens. Particulars: 27.3 µM [14C]malonyl-CoA, proteoliposomes, pH 6.8, 37 °C, 90 min, ELOVL6 alone.

Broadly, the Km is the substrate concentration at which the rate is half of its maximum.

As to `NC(=O)C1=CN([C@@H]2O[C@H](COP(=O)(O)OP(=O)(O)OC[C@H]3O[C@@H](n4cnc5c(N)ncnc54)[C@H](OP(=O)(O)O)[C@@H]3O)[C@@H](O)[C@H]2O)C=CC1` [NADPH], the “coupled elongation with ELOVL6, [14C]malonyl-CoA, TLC” value in data set [1] is recorded as “caused production of 3-hydroxyacyl-CoA with a large increase in product levels”.

B1: 3xFLAG-KAR (3-ketoacyl-CoA reductase KAR), wild type (enzyme)
chain: MESALPAAGFLYWVGAGTVAYLALRISYSLFTALRVWGVGNEAGVGPGLGEWAVVTGSTDGIGKSYAEELAKHGMKVVLISRSKDKLDQVSSEIKEKFKVETRTIAVDFASEDIYDKIKTGLAGLEIGILVNNVGMSYEYPEYFLDVPDLDNVIKKMININILSVCKMTQLVLPGMVERSKGAILNISSGSGMLPVPLLTIYSATKTFVDFFSQCLHEEYRSKGVFVQSVLPYFVATKLAKIRKPTLDKPSPETFVKSAIKTVGLQSRTNGYLIHALMGSIISNLPSWIYLKIVMNMNKSTRAHYLKKTKKN
In data set [2], B1 yielded an in vitro FA elongation assay, purified ELOVL6 and KAR co-reconstituted into proteoliposomes, without NADPH: 3-ketoacyl-CoA levels compared to ELOVL6 alone of 3 fold; an in vitro FA elongation assay, purified ELOVL6 and wild type KAR in the same proteoliposomes, with 1 mM NADPH: product levels compared to ELOVL6 alone of 8 fold.

B2: 3xFLAG-KAR S189A (enzyme)
chain: MESALPAAGFLYWVGAGTVAYLALRISYSLFTALRVWGVGNEAGVGPGLGEWAVVTGSTDGIGKSYAEELAKHGMKVVLISRSKDKLDQVSSEIKEKFKVETRTIAVDFASEDIYDKIKTGLAGLEIGILVNNVGMSYEYPEYFLDVPDLDNVIKKMININILSVCKMTQLVLPGMVERSKGAILNISAGSGMLPVPLLTIYSATKTFVDFFSQCLHEEYRSKGVFVQSVLPYFVATKLAKIRKPTLDKPSPETFVKSAIKTVGLQSRTNGYLIHALMGSIISNLPSWIYLKIVMNMNKSTRAHYLKKTKKN
As for B2, the in vitro FA elongation assay, purified ELOVL6 and KAR S189A co-reconstituted into proteoliposomes, with and without 1 mM NADPH: ELOVL6 activity compared to ELOVL6 alone in data set [3] was determined as 3 fold.

B3: ELOVL6 (Homo sapiens) (protein)
chain: MNMSVLTLQEYEFEKQFNENEAIQWMQENWKKSFLFSALYAAFIFGGRHLMNKRAKFELRKPLVLWSLTLAVFSIFGALRTGAYMVYILMTKGLKQSVCDQGFYNGPVSKFWAYAFVLSKAPELGDTIFIILRKQKLIFLHWYHHITVLLYSWYSYKDMVAGGGWFMTMNYGVHAVMYSYYALRAAGFRVSRKFAMFITLSQITQMLMGCVVNYLVFCWMQHDQCHSHFQNIFWSSLMYLSYLVLFCHFFFEAYIGKMRKTTKAE
notes: N-terminal 3xFLAG, kept; HEK 293T expressed; Triton X-100 solubilized, anti-FLAG purified, reconstituted in POPC proteoliposomes; 29 kDa and N-glycosylated 32 kDa
As to B3, the Km is reported as 6.46 µM in data set [4] and 1.22 µM in data set [5].

For the origin of these results see PMC4086937, “Two Modes of Regulation of the Fatty Acid Elongase ELOVL6 by the 3-Ketoacyl-CoA Reductase KAR in the Fatty Acid Elongation Cycle” (PLoS ONE, 2014).
